Test results published in patent US20240000834A1, “RAS MUTANT EPITOPE PEPTIDE AND T CELL RECEPTOR RECOGNIZING RAS MUTANT” (SHANGHAI GENBASE BIOTECHNOLOGY CO., LTD., priority 2020, published 2024).
Numbering of substitutions follows the chain as printed.

B1: β51I-K: B13.14.1 TCR Vβ point mutant (protein)
TCR alpha: AQSVAQPEDQVNVAEGNPLTVKCTYSVSGNPYLFWYVQYPNRGLQFLLKYITGDNLVKGSYGFEAEFNKSQTSFHLKKPSALVSDSALYFCAVRDGRGGGNKLTFGTGTQLKVEL
TCR beta: GITQSPKYLFRKEGQNVTLSCEQNLNHDAMYWYRQDPGQGLRLIYYSQKVNDFQKGDIAEGYSVSREKKESFPLTVTSAQKNPTAFYLCASSPGQRDNSPLHFGNGTRLTVT
B2: α32Y-W: B13.14.1 TCR Vα point mutant (protein)
TCR alpha: B1 TCR alpha with Y32W
TCR beta: B1 TCR beta with K49I
B3: β51I-R: B13.14.1 TCR Vβ point mutant (protein)
TCR alpha: B1 TCR alpha
TCR beta: B1 TCR beta with K49R
B4: α51I-M: B13.14.1 TCR Vα point mutant (protein)
TCR alpha: B1 TCR alpha with I51M
TCR beta: B1 TCR beta with K49I
B5: α32Y-G: B13.14.1 TCR Vα point mutant (protein)
TCR alpha: B1 TCR alpha with Y32G
TCR beta: B1 TCR beta with K49I
B6: β51I-T: B13.14.1 TCR Vβ point mutant (protein)
TCR alpha: B1 TCR alpha
TCR beta: B1 TCR beta with K49T
B7: β51I-L: B13.14.1 TCR Vβ point mutant (protein)
TCR alpha: B1 TCR alpha
TCR beta: B1 TCR beta with K49L
B8: α51I-H: B13.14.1 TCR Vα point mutant (protein)
TCR alpha: B1 TCR alpha with I51H
TCR beta: B1 TCR beta with K49I
B9: α32Y-R: B13.14.1 TCR Vα point mutant (protein)
TCR alpha: B1 TCR alpha with Y32R
TCR beta: B1 TCR beta with K49I
B10: α32Y-L: B13.14.1 TCR Vα point mutant (protein)
TCR alpha: B1 TCR alpha with Y32L
TCR beta: B1 TCR beta with K49I
B11: α32Y-A: B13.14.1 TCR Vα point mutant (protein)
TCR alpha: B1 TCR alpha with Y32A
TCR beta: B1 TCR beta with K49I
B12: β51I-P: B13.14.1 TCR Vβ point mutant (protein)
TCR alpha: B1 TCR alpha
TCR beta: B1 TCR beta with K49P
B13: α32Y-M: B13.14.1 TCR Vα point mutant (protein)
TCR alpha: B1 TCR alpha with Y32M
TCR beta: B1 TCR beta with K49I
B14: α51I-N: B13.14.1 TCR Vα point mutant (protein)
TCR alpha: B1 TCR alpha with I51N
TCR beta: B1 TCR beta with K49I
B15: α32Y-E: B13.14.1 TCR Vα point mutant (protein)
TCR alpha: B1 TCR alpha with Y32E
TCR beta: B1 TCR beta with K49I
B16: α51I-A: B13.14.1 TCR Vα point mutant (protein)
TCR alpha: B1 TCR alpha with I51A
TCR beta: B1 TCR beta with K49I
B17: α32Y-S: B13.14.1 TCR Vα point mutant (protein)
TCR alpha: B1 TCR alpha with Y32S
TCR beta: B1 TCR beta with K49I
B18: α51I-D: B13.14.1 TCR Vα point mutant (protein)
TCR alpha: B1 TCR alpha with I51D
TCR beta: B1 TCR beta with K49I
B19: α32Y-P: B13.14.1 TCR Vα point mutant (protein)
TCR alpha: B1 TCR alpha with Y32P
TCR beta: B1 TCR beta with K49I
B20: α32Y-I: B13.14.1 TCR Vα point mutant (protein)
TCR alpha: B1 TCR alpha with Y32I
TCR beta: B1 TCR beta with K49I
B21: β51I-M: B13.14.1 TCR Vβ point mutant (protein)
TCR alpha: B1 TCR alpha
TCR beta: B1 TCR beta with K49M
B22: β51I-V: B13.14.1 TCR Vβ point mutant (protein)
TCR alpha: B1 TCR alpha
TCR beta: B1 TCR beta with K49V
B23: β51I-Y: B13.14.1 TCR Vβ point mutant (protein)
TCR alpha: B1 TCR alpha
TCR beta: B1 TCR beta with K49Y
B24: α32Y-V: B13.14.1 TCR Vα point mutant (protein)
TCR alpha: B1 TCR alpha with Y32V
TCR beta: B1 TCR beta with K49I
B25: β51I-Q: B13.14.1 TCR Vβ point mutant (protein)
TCR alpha: B1 TCR alpha
TCR beta: B1 TCR beta with K49Q
B26: β51I-W: B13.14.1 TCR Vβ point mutant (protein)
TCR alpha: B1 TCR alpha
TCR beta: B1 TCR beta with K49W
B27: α32Y-F: B13.14.1 TCR Vα point mutant (protein)
TCR alpha: B1 TCR alpha with Y32F
TCR beta: B1 TCR beta with K49I
B28: α32Y-T: B13.14.1 TCR Vα point mutant (protein)
TCR alpha: B1 TCR alpha with Y32T
TCR beta: B1 TCR beta with K49I
B29: β51I-S: B13.14.1 TCR Vβ point mutant (protein)
TCR alpha: B1 TCR alpha
TCR beta: B1 TCR beta with K49S
B30: α32Y-H: B13.14.1 TCR Vα point mutant (protein)
TCR alpha: B1 TCR alpha with Y32H
TCR beta: B1 TCR beta with K49I
B31: α51I-G: B13.14.1 TCR Vα point mutant (protein)
TCR alpha: B1 TCR alpha with I51G
TCR beta: B1 TCR beta with K49I

Each molecule was assayed against T1, KRAS-G12V antigen (RAS G12V-T15 peptide) (Homo sapiens, UniProt P01116, G12V) (assay: TCR mutant screening in Jurkat-NFAT-Luc cells with antigen-loaded B13 LCL cells (ONE Glo Luciferase)). Conditions: MHC-II binding region mutants; ratio to wild-type B13.14.1 TCR; 16-24 hours.
T1 construct: endogenous in cells; host or cells: patient B13 autologous LCL cells (endogenous HLA-DP); the peptide is synthetic
Format: cell-based
Experimental: According to the table below, point mutations were performed on the Vα and Vβ of B13.14.1 TCR (including CDR3 region and […]), and a lentiviral vector shuttle plasmid encoding the TCR mutant was constructed, packaged with the standard lentiviral vector in 293T cells, and B13.14.1TCR mutant were subjected to function screening.
The TCR mutant (CDR3 region) lentiviral vector was transduced into Jurkat-NFAT-Luc cell line, and B13 LCL cells loaded with KRAS-G12V antigen (RAS G12V-T15 peptide, SEQ ID NO: 5) were used as antigen-presenting cells. 2×10^4 TCR-T and 2×10^4 antigen-loaded B13 LCL cells were co-cultured for 16-24 hours, and added with ONE Glo Luciferase to detect the expression of fluorescent signal, and the TCR Mut RLU/WT RLU (ratio of RLU signal value of TCR mutant to RLU signal value of wild-type B13.14.1 TCR) was calculated.
The TCR mutant (MHC-II binding region) lentiviral vector was transduced into the Jurkat-NFAT-Luc cell line, and B13 LCL cells loaded with KRAS-G12V antigen (RAS G12V-T15 peptide, SEQ ID NO: 5) were used as the antigen-presenting cells. 2×10^4 TCR-T and 2×10^4 antigen-loaded B13 LCL cells were co-cultured for 16-24 hours, the fluorescence signal expression was detected by adding ONE Glo Luciferase, and TCR Mut RLU/WT RLU (ratio of RLU signal value of TCR mutant to RLU signal value of wild-type B13.14.1TCR) was calculated.

Row | Molecule | TCR Mut RLU/WT RLU
1 | B1 | 3.82%
2 | B2 | 3.81%
3 | B3 | 9.90%
4 | B4 | 68.25%
5 | B5 | 4.03%
6 | B6 | 88.58%
7 | B7 | 25.46%
8 | B8 | 85.85%
9 | B9 | 5.60%
10 | B10 | 6.35%
11 | B11 | 4.68%
12 | B12 | 19.95%
13 | B13 | 4.94%
14 | B14 | 84.17%
15 | B15 | 4.59%
16 | B16 | 56.93%

Row | Molecule | TCR Mut RLU/WT RLU
17 | B17 | 5.77%
18 | B18 | 93.65%
19 | B19 | 3.98%
20 | B20 | 4.64%
21 | B21 | 26.84%
22 | B22 | 35.46%
23 | B23 | 19.64%
24 | B24 | 4.71%
25 | B25 | 12.98%
26 | B26 | 22.56%
27 | B27 | 3.81%
28 | B28 | 3.77%
29 | B29 | 21.00%
30 | B30 | 5.60%
31 | B31 | 90.09%
